Results reported in patent publication US7858084B2, “Methods of treatment with renalase (monoamine oxidase C)” (Yale University, priority 2005, dated 2010).
Entries after “also recorded” stand apart in the source; their conditions may differ.

B1: renalase: recombinant renalase protein made in E. coli, refolded before administration; secreted FAD-containing monoamine oxidase of the kidney (protein)
chain: ALLRKEITAPLYLALWDKAGDIGGRMTTANSPHNPRCTADLGAQYITCTPHYAKKHQNFYEELLAHGILEPLTSPIKGMEVKEGESNFVAPHGVSSIIKYYLKESGAEVFLRQCVTQINLRDNKWEVSEDTGSTQQFDLVILTMPAPQILGLQGDIVNLISERQRQQLASVSYSSRYALGLFYEAGMKIDVPWAGQYITSNPCIRFISIDSKKRNTESSECGPLLVVHTTVPFGVTHLEHSEEDVQELITQQLETILPGLPPPVATKCWKWRYSQVTNSAANSPGQMTLHLNPFLIYI
B2: protein isolated from human blood: native renalase isolated from human blood under basal conditions (protein, UniProt Q5VYX0 18-342, looked up)
Renalase: ALLRRQTSGPLYLAVWDKAEDSGGRMTTACSPHNPQCTADLGAQYITCTPHYAKKHQRFYDELLAYGVLRPLSSPIEGMVMKEGDCNFVAPQGISSIIKHYLKESGAEVYFRHRVTQINLRDDKWEVSKQTGSPEQFDLIVLTMPVPEILQLQGDITTLISECQRQQLEAVSYSSRYALGLFYEAGTKIDVPWAGQYITSNPCIRFVSIDNKKRNIESSEIGPSLVIHTTVPFGVTYLEHSIEDVQELVFQQLENILPGLPQPIATKCQKWRHSQVTNAAANCPGQMTLHHKPFLACGGDGFTQSNFDGCITSALCVLEALKNYI
B3: renalase isolated from human urine: native renalase isolated from human urine (protein, UniProt Q5VYX0 18-342, looked up)
Renalase: ALLRRQTSGPLYLAVWDKAEDSGGRMTTACSPHNPQCTADLGAQYITCTPHYAKKHQRFYDELLAYGVLRPLSSPIEGMVMKEGDCNFVAPQGISSIIKHYLKESGAEVYFRHRVTQINLRDDKWEVSKQTGSPEQFDLIVLTMPVPEILQLQGDITTLISECQRQQLEAVSYSSRYALGLFYEAGTKIDVPWAGQYITSNPCIRFVSIDNKKRNIESSEIGPSLVIHTTVPFGVTYLEHSIEDVQELVFQQLENILPGLPQPIATKCQKWRHSQVTNAAANCPGQMTLHHKPFLACGGDGFTQSNFDGCITSALCVLEALKNYI

Tests used:
[1] = infusion of recombinant renalase into rats; assay type: in vivo
[2] = tested on: isolated perfused mouse heart; experiment: isolated perfused mouse heart model of ischemia-reperfusion
Description: Since renalase can metabolize catecholamines, we tested whether it could protect against ischemic myocardial damage.

[3] = blood pressure and heart rate in conscious mice; assay type: in vivo
Procedure: We also tested the effect of renalase on blood pressure and heart rate in conscious mice. Recombinant renalase was prepared using the method described in Example 3 of PCT/US05/009248, which is specifically and completely incorporated herein by reference. As explained in more detail therein, the recombinant protein made in E. coli as used in the examples herein is refolded before administration. Thus, the recombinant renalase protein as used herein is in the active form (i.e., it is active renalase as defined above).
The recombinant protein was given by tail vein injection (100 μg) or retroorbital injection (1 mg) and ambulatory blood pressure and heart rates were measured continuously for 24 hours.

[4] = amine oxidase activity in vitro of renalase isolated from blood and urine; assay type: biochemical, human; conditions: basal conditions
Description: We have tested renalase isolated from blood and urine.

Molecule | blood pressure [1] | heart rate [1] | myocardial (left ventricular) function ([2]; infusion from 10 minutes before 15 min global ischemia until 2 hours after reperfusion, versus control protein glutathione synthase) | decrease of myocardial necrosis ([2]; ischemia-reperfusion, n=3, p<0.001) [%] | mean blood pressure ([3]; 100 μg by tail injection) | minute-to-minute variability in blood pressure ([3]; 100 μg by tail injection, conscious mice) | heart rate ([3]; 100 μg by tail injection, for several hours) | blood pressure ([3]; 1 mg by retroorbital injection) | heart rate ([3]; 1 mg by retroorbital injection) | reversibility of the blood pressure effect ([3]; continuous IV infusion, after stopping) | blood pressure ([3]; continuous infusion by tail vein, 20 μg/minute, during the period of infusion) | amine oxidase activity in vitro [4]
B1 | reduction | lower | preserved myocardial function significantly better; also recorded: preserves left ventrical (LV) function | 54 | remained unchanged | decreased | significantly increased | significant and long-lasting fall | significant and long-lasting fall | reversible | reduction in blood pressure | –
B2 | – | – | – | – | – | – | – | – | – | – | – | no significant amine oxidase activity
B3 | – | – | – | – | – | – | – | – | – | – | – | metabolizes catecholamines
